The values below are quoted from earlier work in patent US20260263563A1, “Method of Treatment of a Thoracolumbar Deformity in a Human Subject with Achondroplasia” (Ascendis Pharma Growth Disorders A/S, priority 2023, published 2026).

For this data set the following is noted: in vivo; cited from earlier work.

Positions of bridges follow the written chain, without caps; N, C: chain ends. No end group written: not given here.

As for “Vosoritide (PGQEHPNARKYKGANKKGLSKGCFGLKLDRIGSMSGLGC; disulfide 23-39)”, the “reported t½” value is “about 28 minutes”.
